From the Immune Epitope Database (IEDB)

What was measured:
HLA-A*02:03 [1] = test: IEDB peptide-MHC binding, cellular MHC/competitive/fluorescence; ≥ and ≤ were set here for values at or beyond the usual limits of such assays
HLA-A*68:02 [2] = test: IEDB peptide-MHC binding, purified MHC/competitive/radioactivity; ≥ and ≤ were set here for values at or beyond the usual limits of such assays
HLA-A*02:02 [3] = test: as above
HLA-A*02:01 [4] = test: as above
HLA-A*02:06 [5] = test: as above
HLA-A*68:02 [6] = test: IEDB peptide-MHC binding, cellular MHC/competitive/fluorescence; ≥ and ≤ were set here for values at or beyond the usual limits of such assays
HLA-A*02:02 [7] = test: as above
HLA-A*02:01 [8] = test: as above
HLA-A*02:06 [9] = test: as above
HLA-A*02:03 [10] = test: IEDB peptide-MHC binding, purified MHC/competitive/radioactivity; ≥ and ≤ were set here for values at or beyond the usual limits of such assays
[11] = source organism: Vaccinia virus WR
[12] = source organism: Influenza A virus
[13] = source organism: Mammarenavirus brazilense

| Sequence | IC50 (HLA-A*68:02 [6]; [11]) [µM] | IC50 (HLA-A*02:02 [7]; [11]) [µM] | IC50 (HLA-A*02:01 [8]; [11]) [µM] | IC50 (HLA-A*02:06 [9]; [11]) [µM] | IC50 (HLA-A*02:03 [10]; [11]) [µM] | further results |
| --- | --- | --- | --- | --- | --- | --- |
| STVDVRNIVT | – | – | – | – | – | IC50 (HLA-A*02:03 [1]; [11]): 11.6 µM; IC50 (HLA-A*68:02 [2]; [11]): 0.475 µM; IC50 (HLA-A*02:02 [3]; [11]): 3.06 µM; IC50 (HLA-A*02:01 [4]; [11]): 3.05 µM; IC50 (HLA-A*02:06 [5]; [11]): 1.57 µM |
| DAKRNSKSLV | 12.6 | 13.3 | 30.3 | 52.1 | 2.87 | – |
| TAGNKVDVDI | 9.83 | 11 | 40.2 | 38.1 | 3.5 | – |
| TLNTMTKDA | – | – | – | – | – | IC50 (HLA-A*68:02 [6]; [12]): ≥ 70 µM; IC50 (HLA-A*02:02 [7]; [12]): 14.7 µM; IC50 (HLA-A*02:01 [8]; [12]): 10.2 µM; IC50 (HLA-A*02:06 [9]; [12]): ≥ 70 µM; IC50 (HLA-A*02:03 [10]; [12]): 0.581 µM |
| SNPNLFWAV | – | – | – | – | – | IC50 (HLA-A*02:03 [1]; [13]): 6.16 µM; IC50 (HLA-A*68:02 [2]; [13]): 0.079 µM; IC50 (HLA-A*02:02 [3]; [13]): 0.17 µM; IC50 (HLA-A*02:01 [4]; [13]): 1.46 µM; IC50 (HLA-A*02:06 [5]; [13]): 0.035 µM |
| IVNTTYDFLA | – | – | – | – | – | IC50 (HLA-A*02:03 [1]; [11]): 8.27 µM; IC50 (HLA-A*68:02 [2]; [11]): 0.991 µM; IC50 (HLA-A*02:02 [3]; [11]): 1.25 µM; IC50 (HLA-A*02:01 [4]; [11]): 2.39 µM; IC50 (HLA-A*02:06 [5]; [11]): 0.956 µM |
| RASAGQISV | – | – | – | – | – | IC50 (HLA-A*68:02 [6]; [12]): 8.55 µM; IC50 (HLA-A*02:02 [7]; [12]): 38.8 µM; IC50 (HLA-A*02:01 [8]; [12]): 19.6 µM; IC50 (HLA-A*02:06 [9]; [12]): 11.5 µM; IC50 (HLA-A*02:03 [10]; [12]): 4.96 µM |
| GIRCVSNLDI | ≥ 70 | 20.1 | ≥ 70 | 33 | 3.87 | – |
| SVKYYGRST | 30.7 | 6.79 | 25.9 | 19.5 | 1.16 | – |
| ILSEKRKDTI | ≥ 70 | 44 | ≥ 70 | ≥ 70 | 0.541 | – |
| NTSQRGIL | – | – | – | – | – | IC50 (HLA-A*68:02 [6]; [12]): ≥ 70 µM; IC50 (HLA-A*02:02 [7]; [12]): 5.1 µM; IC50 (HLA-A*02:01 [8]; [12]): 6.68 µM; IC50 (HLA-A*02:06 [9]; [12]): ≥ 70 µM; IC50 (HLA-A*02:03 [10]; [12]): 2.79 µM |
| MISTYPGNT | 14.7 | 5.49 | 22.1 | 25.7 | 0.229 | – |
| HQRRLVKLL | ≥ 70 | 15.9 | 26.6 | 21.3 | 1.68 | – |
| LMSDNPKAST | ≥ 70 | 8.88 | 8.98 | 47.4 | 0.938 | – |
| NAVTTNNLL | – | – | – | – | – | IC50 (HLA-A*02:03 [1]; [11]): 24.9 µM; IC50 (HLA-A*68:02 [2]; [11]): 4 µM; IC50 (HLA-A*02:02 [3]; [11]): 1.85 µM; IC50 (HLA-A*02:06 [5]; [11]): 0.202 µM |
| QMYRKFSRCT | 48.2 | 25.7 | 27.1 | 14.7 | 2.27 | – |
| GILIYDDNI | 33.5 | 11.7 | 11.3 | 13.3 | 1.7 | – |
